Source: the emibetuzumab library of Makowski et al. (2022)

B1: VH:VL chains; a variant is named by its letters at X, in order (parent)
chain 1: QVQLVQSGAEVKKPGASVKVSCKASGYTFTDYXMHWVRQAPGQGLEWMGXVNPNXXXTTYNQKFEGRVTMTTDTSTSTAYMELRSLRSDDTAVYYCARXNXLDXWGQGTTVTVSS
chain 2: DIQMTQSPSSLSASVGDRVTITCSVSSSVSSIYLHWYQQKPGKAPKLLIYSTSNLASGVPSRFSGSGSGTDFTLTISSLQPEDFATYYCQVYSGYPLTFGGGTKVEIK

Variants of: B1
Test: yeast display scFab, FACS + sequencing
In short: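 Heavy-chain CDR mutant scFab yeast surface library, FACS-sorted after labelling with biotinylated ovalbumin (260 μg/mL in PBSB, 3 h, room temperature) or soluble membrane proteins (130 μg/mL, 20 min on ice), plus anti-Myc. Gates collected the top 25% and bottom 10% of binders, and samples from two replicates were deep sequenced. Non-specific binding call: a sequence was positive if found in ≥3 of 4 positive samples (membrane protein and ovalbumin pooled) and no negatives, and negative by the converse rule.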

| Variant | non-specific binding call |
| --- | --- |
| FRGGGFVV | binds |
| FRGKGASD | binds |
| FRGKGASS | binds |
| FRGKGASV | binds |
| YRGGGYLV | no binding |
| FRGGGSAA | binds |
| YRGKAFGV | binds |
| FRGGSAGD | binds |
| DRGGDDVV | no binding |
| DRGGDDVY | no binding |
| DRGGDDVD | no binding |
| DRGGDVSD | binds |
| YRGKSSAD | binds |
| FRGRASLS | binds |
| VRGGGSAA | binds |
| YRGKGYVV | binds |
| YRGGSDGS | no binding |
| YRGGGYGF | binds |
| VRGGDAAS | no binding |
| YRGKAAVD | binds |
| DRGGDDWY | no binding |
| DRGGDDWV | no binding |
| YRGKSDGS | binds |
| YRGKAAGD | binds |
| YRGKAAGV | binds |

| Variant | non-specific binding call |
| --- | --- |
| YRGGDSSY | no binding |
| SRGGDDVA | no binding |
| YRGGDAAF | no binding |
| FRGGGSSA | binds |
| FRGRDDVF | no binding |
| YRGGTSVD | binds |
| YRGGGSVF | binds |
| YRGKASVD | binds |
| DRGRDDAA | no binding |
| FRGGGSLD | binds |
| FRGRDALY | binds |
| YRGKGSAV | binds |
| YRGKGSAD | binds |
| YRGKGSAA | binds |
| DRGGDSLD | no binding |
| VRGRDDSA | no binding |
| YRGGDYSV | no binding |
| DRGRDAGD | no binding |
| DRGRDAGA | no binding |
| FRGGDSAD | binds |
| DRGGSAGD | no binding |
| ARGKASSY | no binding |
| YRGGDDLV | no binding |
| YRGGDDLY | no binding |
| YRGKDVGV | binds |

| Variant | non-specific binding call |
| --- | --- |
| YRGGSSGY | binds |
| YRGKASGD | binds |
| FRGRDDWA | no binding |
| VRGKGDWV | no binding |
| YRGKSSWA | binds |
| YRGKDAWY | binds |
| YRGKDAWS | binds |
| FRGKGFGV | binds |
| YRGKDALA | binds |
| DRGGDSSS | no binding |
| YRGRDALV | binds |
| FRGRDFGS | binds |
| YRGGGVVD | binds |
| FRGKDASA | no binding |
| VRGGGDGY | no binding |
| VRGKGASA | binds |
| YRGGGFAD | binds |
| SRGRDAWA | binds |
| DRGGDDLV | no binding |
| YRGGGAAF | binds |
| YRGKGAVS | binds |
| YRGKGAVF | binds |
| FRGRDAVF | binds |
| FRGRDAVD | binds |
| YRGKGAGY | binds |

| Variant | non-specific binding call |
| --- | --- |
| YRGKGAGF | binds |
| YRGKGSWA | binds |
| YRGKGSWS | binds |
| FRGGSVGY | binds |
| YRGKGAWY | binds |
| YRGKGAWA | binds |
| YRGKGAWS | binds |
| FRGGGVGV | binds |
| SRGGGALD | no binding |
| YRGKGFVV | binds |
| YRGKGFVA | binds |
| YRGKDAGA | binds |
| VRGGSDGY | no binding |
| FRGKGAVD | binds |
| FRGKGAVS | binds |
| YRGGGALS | binds |
| ARGGDDGA | no binding |
| VRGRDFGV | binds |
| YRGRASLY | binds |
| FRGGGDWD | no binding |
| DRGRDDVV | no binding |
| DRGRDDVD | no binding |
| DRGRDDVA | no binding |
| DRGRDDVF | no binding |
| DRGGDDGS | no binding |

| Variant | non-specific binding call |
| --- | --- |
| YRGRDAGF | binds |
| FRGGDYGS | binds |
| FRGGGAVA | binds |
| FRGGGAVS | binds |
| YRGKSSGF | binds |
| VRGKAAVS | binds |
| YRGGGSGS | binds |
| YRGGDSAS | no binding |
| YRGGDSAY | no binding |
| VRGGGVGV | binds |
| DRGGSSAA | no binding |
| VRGKGAWD | binds |
| VRGKGAWA | binds |
| DRGGGDAS | no binding |
| VRGKAFVV | binds |
| YRGRASVV | binds |
| YRGRDASF | no binding |
| YRGRDASS | no binding |
| YRGRDASA | binds |
| YRGKDSGS | binds |
| YRGKDSGA | binds |
| YRGKGSGF | binds |
| YRGKGSGS | binds |
| FRGRDFAD | binds |
| YRGKGYAA | binds |

| Variant | non-specific binding call |
| --- | --- |
| FRGGASSD | binds |
| YRGGTAAA | binds |
| SRGKGALD | binds |
| YRGKDAAY | binds |
| FRGRASAD | binds |
| VRGGDDVF | no binding |
| VRGGGAWV | binds |
| YRGGGDWV | no binding |
| YRGKSALA | binds |
| VRGKGAVD | binds |
| SRGGSALA | no binding |
| FRGRDDLV | no binding |
| YRGGASGA | binds |
| FRGKGSGF | binds |
| FRGKGSGV | binds |
| FRGKGSGA | binds |
| FRGKGSGD | binds |
| YRGKDSVD | binds |
| VRGKGSGA | binds |
| VRGKGSGF | binds |
| VRGKGSGV | binds |
| VRGKGSLA | binds |
| ARGRDAWV | binds |
| SRGKSFGS | binds |
| YRGGASAA | binds |

| Variant | non-specific binding call |
| --- | --- |
| DRGGDDAA | no binding |
| DRGGDDAD | no binding |
| YRGKGFGS | binds |
| YRGGSDVA | no binding |
| FRGGGSWA | binds |
| YRGRAAVS | binds |
| VRGRAAGD | no binding |
| FRGKADVD | binds |
| VRGKDSLD | no binding |
| VRGRDDVV | no binding |
| YRGGGSAA | binds |
| FRGGSSGV | binds |
| FRGGSSGS | binds |
| YRGGGDGF | no binding |
| SRGKGSGV | binds |
| YRGKSAAV | binds |
| FRGKGAGS | binds |
| FRGKGAGY | binds |
| FRGKGAGA | binds |
| FRGKGSLA | binds |
| YRGKGAAS | binds |
| YRGKGAAF | binds |
| DRGRDDGS | no binding |
| VRGGDAVY chain 1 G44D | no binding |
| ARGKGSGD | binds |

| Variant | non-specific binding call |
| --- | --- |
| VRGRDAVS | binds |
| YRGKSSVD | binds |
| FRGKGAWD | binds |
| VRGGGDAA | no binding |
| YRGGDDSV | no binding |
| YRGGDDSS | no binding |
| YRGKDASD | binds |
| VRGGGAAV | no binding |
| VRGGGAAY | no binding |
| FRGGSSAA | binds |
| FRGKGSAV | binds |
| FRGKGSAD | binds |
| SRGKGDAD | no binding |
| YRGGDYLV | no binding |
| FRGRAAVD | binds |
| YRGGGDSV | no binding |
| VRGGDAVS | no binding |
| VRGGDAVA | no binding |
| YRGKGDGS | binds |
| YRGRDDLA | no binding |
| YRGKGSLA | binds |
| VRGRDDGV | no binding |
| VRGGDDWA | no binding |
| VRGGDDWF | no binding |
| YRGKGVGV | binds |

| Variant | non-specific binding call |
| --- | --- |
| YRGKGVGD | binds |
| YRGGTFGF | binds |
| YRGGDYGA | no binding |
| FRGKGSWD | binds |
| FRGKSAAA | binds |
| YRGGGDVS | binds |
| VRGGSDVD | no binding |
| VRGGSDVA | no binding |
| YRGRDDWF | no binding |
| VRGGGFGV | no binding |
| VRGGGFGD | binds |
| VRGKGAAD | binds |
| FRGGSAVD | binds |
| FRGGSAVY | binds |
| SRGGGVGY | binds |
| VRGKGSSD | no binding |
| VRGKGSSS | binds |
| YRGKGALS | binds |
| YRGKGALA | binds |
| FRGGGSGF | binds |
| FRGGGSGV | binds |
| FRGGGSGS | binds |
| YRGRASGA | binds |
| VRGGDDGS | no binding |
| VRGGDDGV | no binding |

| Variant | non-specific binding call |
| --- | --- |
| DRGRDDLV | no binding |
| FRGGGSVS | binds |
| DRGRDAWS | no binding |
| DRGRDAWF | no binding |
| FRGKGAAV | binds |
| FRGKGAAA | binds |
| FRGKGAAS | binds |
| DRGKNDGD | no binding |
| YRGKASWD | binds |
| DRGGGDGV | no binding |
| YRGGSAGF | binds |
| YRGGSAGA | binds |
| YRGRDDGD | no binding |
| VRGGGDWV | no binding |
| YRGGASWV | binds |
| DRGGDAVA | no binding |
| DRGGDAVV | no binding |
